Here are results for five substances from publication PMC10995880.

For experiment [1], the target named is PEX3 cytosolic domain (Homo sapiens) (UniProt P56589). The following applies: cited from earlier work.
For experiment [2], the target named is 2×Strep-SUMO-PEX26 (237-305aa) (UniProt Q7Z412).
In experiment [3] the target is His6-PEX19-αd4A (F125A, L129A, L133A, L136A), non-farnesylated (human) (UniProt P40855). Description: cross-linking; UV crosslinking from Bpa at L264 of PEX26; purified PEX19·PEX26^Bpa complex chased with SGTA instead of CaM.
The target in experiment [4] is His6-PEX19-WT (1–299 aa), non-farnesylated (human) (UniProt P40855). The experiment is described as above.
Experiment [5] concerns the target PEX19-αd4A proteins. Description: cross-linking; UV crosslinking from Bpa at L264 of PEX26; purified PEX19·PEX26^Bpa complex (400 nM PEX19) chased with 20 μM CaM at room temperature in 20 mM K-HEPES pH 7.5, 150 mM CH3COOK, 1 mM Ca acetate, 1 mM DTT, 10% glycerol; frozen aliquots irradiated; anti-Strep blot; dissociation (%) = PEX26xCaM/(PEX26xPEX19 + PEX26xCaM).
Experiment [6] deals with His6-PEX19-αd4A (F125A, L129A, L133A, L136A), non-farnesylated (human) (UniProt P40855). Described as above.
The target of experiment [7] is PEX19-WT proteins. The description is as above.
The target of experiment [8] is farnesylated PEX19-WT (PEX19-WT^F) (human) (UniProt P40855). The description is as above.
For experiment [9], the target named is His6-PEX19-WT (1–299 aa), non-farnesylated (human) (UniProt P40855). The experiment is described as above.
The target of experiment [10] is PEX3 cytosolic domain (Homo sapiens) (UniProt P56589). The following applies: cited from earlier work. The source holds these as a separate data set.

“And” between values parts separate entries of the source, which are not always exact repeats. Equal values may be shown once. Read-outs that look alike come from different tables or passages of the source.

Chain of PEX3 cytosolic domain (Homo sapiens) (P56589 41-373): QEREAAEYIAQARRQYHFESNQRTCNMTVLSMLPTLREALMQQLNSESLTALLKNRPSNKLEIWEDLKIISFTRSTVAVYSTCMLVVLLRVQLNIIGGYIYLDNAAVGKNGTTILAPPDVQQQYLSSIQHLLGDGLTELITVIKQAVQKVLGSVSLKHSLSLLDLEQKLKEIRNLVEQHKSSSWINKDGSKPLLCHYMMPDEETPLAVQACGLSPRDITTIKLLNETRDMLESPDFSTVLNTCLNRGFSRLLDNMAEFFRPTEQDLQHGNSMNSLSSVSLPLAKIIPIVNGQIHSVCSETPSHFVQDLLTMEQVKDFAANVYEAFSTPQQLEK
Chain of 2×Strep-SUMO-PEX26 (237-305aa) (Q7Z412 237-305): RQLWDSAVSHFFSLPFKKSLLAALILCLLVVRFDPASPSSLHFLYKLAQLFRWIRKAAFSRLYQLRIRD
Chain of farnesylated PEX19-WT (PEX19-WT^F) (P40855 whole entry): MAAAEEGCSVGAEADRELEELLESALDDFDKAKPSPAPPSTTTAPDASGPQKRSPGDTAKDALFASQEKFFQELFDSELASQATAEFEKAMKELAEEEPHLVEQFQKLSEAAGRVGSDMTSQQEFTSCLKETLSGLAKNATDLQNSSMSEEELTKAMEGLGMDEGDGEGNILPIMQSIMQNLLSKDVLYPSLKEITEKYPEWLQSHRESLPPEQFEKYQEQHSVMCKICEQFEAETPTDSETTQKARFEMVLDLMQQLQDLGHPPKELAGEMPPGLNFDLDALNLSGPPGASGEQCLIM
Chain of His6-PEX19-WT (1–299 aa), non-farnesylated (P40855 whole entry, the tested form may be a part): as the sequence (P40855 whole entry) above
Chain of PEX19 (P40855 2-296): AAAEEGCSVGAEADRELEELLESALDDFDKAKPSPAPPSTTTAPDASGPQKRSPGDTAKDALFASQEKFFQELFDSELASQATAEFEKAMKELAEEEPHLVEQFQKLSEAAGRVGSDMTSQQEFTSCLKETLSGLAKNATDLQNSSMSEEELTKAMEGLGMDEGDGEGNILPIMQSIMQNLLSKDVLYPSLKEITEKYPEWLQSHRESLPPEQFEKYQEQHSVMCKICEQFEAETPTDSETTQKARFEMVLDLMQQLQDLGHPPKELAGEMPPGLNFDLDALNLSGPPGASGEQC
Chain of PEX19 αa peptide (P40855 14-33): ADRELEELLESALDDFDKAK

By Kd is commonly meant the concentration at which binding is half-saturated. As for PEX19 αa peptide (from UniProt P40855), the Kd in experiment [1] is 40.8 nM.
“His6-PEX19-WT (1–299 aa), non-farnesylated (from UniProt P40855 1-299) (natural protein)”: the turbidity assay (OD360): concentration of PEX19 for half-maximal solubilization of 1.5 μM PEX26 (K soluble) in experiment [2] is 1.71 µM.
As to “farnesylated PEX19-WT (PEX19-WT^F) (from UniProt P40855 1-299) (natural protein)”, the turbidity assay (OD360): concentration of PEX19 for half-maximal solubilization of 1.5 μM PEX26 (K soluble) in experiment [2] turned out to be 0.72 µM.
In experiment [3], “2×Strep-SUMO-PEX26^Bpa (L264^Bpa) (from UniProt Q7Z412 237-305) (domain or fragment)” had a PEX26 dissociation (%) within 10 min of SGTA chase of more than 40% and a PEX26 dissociation (%) within 20 min of SGTA chase of 50%. In experiment [4], the PEX26 dissociation (%) within 80 min of SGTA chase was less than 4%. Also, in [5], the PEX26 dissociation (%) within 5 min of CaM chase was 60% and 80%. In experiment [6], the PEX26 dissociation (%) within 10 min of CaM chase came out at 70%. Also, the PEX26 dissociation (%) within 4 h of CaM chase in [7] was 20% and 30%. For the same substance, the time to release ∼20% of PEX26 to CaM in [8] stood at 240 min. For the same substance, in experiment [9], the PEX26 dissociation (%) within 10 min of CaM chase worked out at 16%; the time to release ∼20% of PEX26 to CaM was 30 min and 40 min.
In the case of PEX19 (from UniProt P40855), the Kd in experiment [10] is 3.4 nM.
